Assay results reported in US20090275047A1 (published 2009).

Target: the molecule itself
Assay: X-ray crystal structure; crystal lattice contact between symmetry-related molecules

B1: human soluble adenylate cyclase catalytic domain, construct solAC-2056 (M1-V469 with non-cleavable C-terminal His6 tag) (enzyme)
chain: MNTPKEEFQDWPIVRIAAHLPDLIVYGHFSPERPFMDYFDGVLMFVDISGFTAMTEKFSSAMYMDRGAEQLVEILNYHISAIVEKVLIFGGDILKFAGDALLALWRVERKQLKNIITVVIKCSLEIHGLFETQEWEEGLDIRVKIGLAAGHISMLVFGDETHSHFLVIGQAVDDVRLAQNMAQMNDVILSPNCWQLCDRSMIEIESVPDQRAVKVNFLKPPPNFNFDEFFTKCTTFMHYYPSGEHKNLLRLACTLKPDPELEMSLQKYVMESILKQIDNKQLQGYLSELRPVTIVFVNLMFEDQDKAEEIGPAIQDAYMHITSVLKIFQGQINKVFMFDKGCSFLCVFGFPGEKVPDELTHALECAMDIFDFCSQVHKIQTVSIGVASGIVFCGIVGHTVRHEYTVIGQKVNLAARMMMYYPGIVTCDSVTYNGSNLPAYFFKELPKKVMKGVADSGPLYQYWGRTEKVHHHHHH
modifications: possible acetylation of the N-terminus at Met1 (electron density peak, not modelled)
notes: Expressed in Hi 5 insect cells and crystallised in space group P63; The protein-protein contact recorded is between symmetry-related copies of this molecule in the crystal; also called construct 2056; solAC catalytic domain
binding result: binds
